B1: HIV-1 Rev full-length (Rev^FL, aa 1-116), tag cleaved (natural protein)
chain: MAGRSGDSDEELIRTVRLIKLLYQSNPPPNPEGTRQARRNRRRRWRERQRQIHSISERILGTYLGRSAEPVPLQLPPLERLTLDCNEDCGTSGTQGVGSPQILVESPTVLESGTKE
B2: NPM1 oligomerization domain (NPM1^OD, aa 1-122), tag cleaved (domain or fragment, UniProt P06748 1-122, looked up)
chain: MEDSMDMDMSPLRPQNYLFGCELKADKDYHFKVDNDENEHQLSLRTVSLGAGAKDELHIVEAEAMNYEGSPIKVTLATLKMSVQPTVSLGGFEITPPVVLRLKCGSGPVHISGQHLVAVEED
notes: source: E. coli (BL21(DE3), pLysS BL21(DE3), CodonPlusRIL or BL21(Rosetta)), purified
B3: NPM1 histone binding domain (NPM1^HBD, aa 120-241), tag cleaved (domain or fragment, UniProt P06748 120-241, looked up)
chain: EEDAESEDEEEEDVKLLSISGKRSAPGGGSKVPQKKVKLAADEDDDDDDEEDDDEDDDDDDFDDEEAEEKAPVKKSIRDTPAKNAQKSNQNGKDSKPSSTPRSKGQESFKKQEKTPKTPKGP
notes: as for B2
B4: NPM1 histone and RNA-binding domains (NPM1^HRBD, aa 120-294), tag cleaved (domain or fragment, UniProt P06748 120-294, looked up)
chain: EEDAESEDEEEEDVKLLSISGKRSAPGGGSKVPQKKVKLAADEDDDDDDEEDDDEDDDDDDFDDEEAEEKAPVKKSIRDTPAKNAQKSNQNGKDSKPSSTPRSKGQESFKKQEKTPKTPKGPSSVEDIKAKMQASIEKGGSLPKVEAKFINYVKNCFRMTDQEAIQDLWQWRKSL
notes: also called NPM^HRBD; source: E. coli (BL21(DE3), pLysS BL21(DE3), CodonPlusRIL or BL21(Rosetta)), purified

Experiments:
FITC-labelled CIGB-300 = assay: fluorescence polarisation; increasing amounts of NPM1 variants, GST-Rev, GST-US11 or GST titrated into 0.1 uM FITC-labelled CIGB-300; 25 C; 30 mM Tris/HCl pH 7.5, 150 mM NaCl, 5 mM MgCl2, 1 mM TCEP; quadratic ligand binding equation
[1] = biological target: HSV-1 US11 full-length (US11^FL, aa 1-152), tag-free (HSV-1) (UniProt P04487); assay: SEC-MALS; aSEC (Superdex 200 10/300) with MALS/RI of NPM1^OD, US11^FL and their mixture, RNase A treated; 30 mM Tris-HCl pH 7.5, 150 mM NaCl, 5 mM MgCl2, 3 mM DTT
[2] = biological target: HSV-1 US11 full-length (US11^FL, aa 1-152), tag-free (HSV-1) (UniProt P04487); assay: ITC; 1.2 mM NPM1^FL titrated into 60 uM US11^FL; both treated with RNase A; 25 C; apparent Kd; endothermic
[3] = biological target: B2; assay: ITC; NPM1 variants titrated into Rev^FL (tags cleaved); 25 C; 30 mM Tris-HCl pH 7.5, 150 mM NaCl, 5 mM MgCl2, 1 mM TCEP; VP-ITC; conditions: both partners purified
[4] = biological target: T1, NPM1 full-length (NPM1^FL, aa 1-294), tag cleaved (UniProt P06748 1-294); assay: as above; conditions: both partners purified
T1 construct: source: E. coli (BL21(DE3), pLysS BL21(DE3), CodonPlusRIL or BL21(Rosetta)), purified

[5] = biological target: B3; assay: as above; conditions: both partners purified
[6] = biological target: B4; assay: as above; conditions: both partners purified
[7] = biological target: B1; assay: as above; conditions: both partners purified
[8] = biological target: the molecule itself; assay: SEC-MALS; aSEC (Superdex 200 10/300) with MALS/RI of NPM1^OD, US11^FL and their mixture, RNase A treated; 30 mM Tris-HCl pH 7.5, 150 mM NaCl, 5 mM MgCl2, 3 mM DTT

Molecule | Kd (FITC-labelled CIGB-300) [µM] | dH [7] [kcal/mol] | stoichiometry N [7] [sites] | further results
NPM1 oligomerization domain (NPM1^OD, aa 1-122), tag cleaved (from UniProt P06748 1-122) (domain or fragment) | 6.6 | – | – | stoichiometry N (US11^FL monomer per NPM1^OD pentamer) [1]: 1
NPM1 full-length (NPM1^FL, aa 1-294), tag cleaved (from UniProt P06748 1-294) (natural protein) | 1.4 | – | – | Kd [2]: 4 µM
B1 | – | – | – | Kd [3]: 0.013 µM; Kd [4]: 0.41 µM; Kd [5]: 5.8 µM; Kd [6]: 18 µM
B2 | – | -3.79 ± 0.11 | 0.94 | stoichiometry N [8]: 5
B3 | – | -1.71 ± 0.2 | 0.85 | –
B4 | – | -3.23 ± 0.31 | 0.76 | –

Source: publication PMC4704560, “Biophysical Characterization of Nucleophosmin Interactions with Human Immunodeficiency Virus Rev and Herpes Simplex Virus US11” (PLoS ONE, 2015)
